Measurements taken from publication PMC7238435.

Biological target: recombinant human cartilage oligomeric matrix protein (COMP) (human) (UniProt P49747)
Assay: atomic force microscopy

Chain of recombinant human cartilage oligomeric matrix protein (COMP), P49747 21-757 (natural protein; other documents disagree on this pair) (P49747 21-757): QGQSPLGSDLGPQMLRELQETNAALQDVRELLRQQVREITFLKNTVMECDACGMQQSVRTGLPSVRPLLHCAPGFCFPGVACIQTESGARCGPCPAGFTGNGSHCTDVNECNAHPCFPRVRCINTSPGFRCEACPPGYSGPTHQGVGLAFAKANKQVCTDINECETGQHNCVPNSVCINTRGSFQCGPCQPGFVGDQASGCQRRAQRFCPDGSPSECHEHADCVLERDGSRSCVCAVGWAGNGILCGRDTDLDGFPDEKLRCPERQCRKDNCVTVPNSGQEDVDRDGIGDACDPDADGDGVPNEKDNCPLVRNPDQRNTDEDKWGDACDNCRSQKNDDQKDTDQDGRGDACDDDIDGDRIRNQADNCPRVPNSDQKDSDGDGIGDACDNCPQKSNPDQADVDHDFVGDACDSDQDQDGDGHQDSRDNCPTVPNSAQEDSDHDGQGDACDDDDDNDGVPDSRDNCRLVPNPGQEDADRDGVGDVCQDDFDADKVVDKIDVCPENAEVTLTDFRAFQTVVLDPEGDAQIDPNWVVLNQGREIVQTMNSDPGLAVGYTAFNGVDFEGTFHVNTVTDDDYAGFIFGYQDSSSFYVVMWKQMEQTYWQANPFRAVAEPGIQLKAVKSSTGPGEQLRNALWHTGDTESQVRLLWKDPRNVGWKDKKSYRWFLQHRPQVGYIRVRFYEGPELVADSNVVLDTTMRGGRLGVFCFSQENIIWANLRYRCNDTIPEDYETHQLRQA

stoichiometry N: 5
Substance: recombinant human cartilage oligomeric matrix protein (COMP), P49747 21-757 (natural protein; other documents disagree on this pair)
